Experimental findings from US6861508B2, “Transcriptional intermediary factor-2” (Institut National de la Sante et de la Recherche Medicale, priority 1996, dated 2005) are described below.

The chains are these.
B3: GST-hERα(DEF) (pGEX2T-hERα(DEF), amino acids 282-595) (receptor, human, UniProt P03372 282-595, looked up)
chain: SAGDMRAANLWPSPLMIKRSKKNSLALSLTADQMVSALLDAEPPILYSEYDPTRPFSEASMMGLLTNLADRELVHMINWAKRVPGFVDLTLHDQVHLLECAWLEILMIGLVWRSMEHPGKLLFAPNLLLDRNQGKCVEGMVEIFDMLLATSSRFRMMNLQGEEFVCLKSIILLNSGVYTFLSSTLKSLEEKDHIHRVLDKITDTLIHLMAKAGLTLQQQHQRLAQLLLILSHIRHMSNKGMEHLYSMKCKNVVPLYDLLLEMLDAHRLHAPTSRGGASVEETDQSHLATAGSTSSHSLQKYYITGEAEGFPATV
notes: range 282-595; Bacterially produced; also used 32P-labelled as Far-Western probe; also called GST-ER; GST-ER(DEF); not shown: glutathione-S-transferase (GST) of pGEX2T (Pharmacia)
B4: GST-hRARα(DEF) (pGEX2T-hRARα(DEF), amino acids 153-462) (receptor, human, UniProt P10276 153-462, looked up)
chain: MSKESVRNDRNKKKKEVPKPECSESYTLTPEVGELIEKVRKAHQETFPALCQLGKYTTNNSSEQRVSLDIDLWDKFSELSTKCIIKTVEFAKQLPGFTTLTIADQITLLKAACLDILILRICTRYTPEQDTMTFSDGLTLNRTQMHNAGFGPLTDLVFAFANQLLPLEMDDAETGLLSAICLICGDRQDLEQPDRVDMLQEPLLEALKVYVRKRRPSRPHMFPKMLMKITDLRSISAKGAERVITLKMEIPGSMPPLIQEMLENSEGLDTLSGQPGGGGRDGGGLAPPPGSCSPSLSPSSNRSSPATHSP
notes: range 153-462; Bacterially produced; also called GST-RAR; GST-RARα(DEF); not shown: glutathione-S-transferase (GST) of pGEX2T (Pharmacia)

One experiment relates to ER. As to the kind of experiment: CAT reporter transactivation by ER with TIF2/TIF2.1 coexpression. The class given is cell-based. The settings on record: HeLa, Cos-1 cells. The procedure: (b) HeLa cells were cotransfected with 5 μg Vit-tk-CAT and the indicated amount of HEGO, with or without 5 μg TIF2.1 in the presence of […] E2 or OHT. CAT activity is given relative to that induced by 100 ng HEGO in presence of E2.
(d) HeLa (lanes 1-12) or Cos-1 lanes 13-18) cells were transfected with 5 fig GRE-TATA-CAT (lanes 1-6) or 1 μg MMTV-CAT (lanes 7-18) together with 1 μg hPR with or without 3 μg TIF 2 in presence or absence of […] of the indicated ligand. • (e) Cos-1 cells were cotransfected with 1 μg Vit-tk-CAT and 1 μg HEGO with or without 3 μg TIF2 in presence or absence of 10^−6 M of the indicated ligands.
TIF2-stimulation is to some extent affected by the promoter environment of the responsive gene, as the TIF2 effect on PR/5020-induced transactivation was greater for a complex (MMTV) than for a minimal (GRE-TATA) promoter, although the latter was also reproducibly stimulated (FIG. 5d).

Experiment [1] addresses B4. As to the kind of experiment: GST pull-down with 35S in-vitro-translated TIF2 polypeptides (FIG. 7a-b).
The target in experiment [2] is B3. The experiment is described as above.
The next experiment concerns ER, RARα and RXRα LBDs. As to the kind of experiment: GST pull-down of TIF2 polypeptides with NR LBDs. The format is binding. The settings on record: in vitro, with or without 10^−6 M ligand. The method, then: (b) Mapping of the nuclear receptor-interacting domain of TIF2.
(c-d) Interaction of TIF2 NID mutants with NRs in vitro. […] For quantification of point mutant interactions, see below.
(e-f) Effect of TIF2 NID point mutations on stimulation of NR AF-2 activity. Cos-1 cells were cotransfected with 1 μg of the (17m)5-TATA-CAT reporter, 0.2 μg of GAL-hERα(EF) or GAL-mRXRα(DE), and 2.5 μg of the TIF2.1 wildtype or mutated fragments, as indicated. […] Each bar represents the mean value obtained from at least three (interaction) or at least four (transactivation) experiments, respectively; standard deviations are indicated. Note that the absolute values for TIF2.1 wildtype activity varied by ±16% when cotransfected with GAL-hERα(EF) and by ±34% when cotransfected with GAL-mRXRα(DE). In the in-vitro-interaction assays, the affinity of the TIF2.1 wildtype standard varied by less than ±25%. Expression levels of TIF2 mutants in the cells were verified by Western blot (not shown) with mouse monoclonal antibody 3Ti3F1, which is directed against an epitope outside the mutated area.
To further delineate the TIF2 NR interaction domain (NID), we studied the interaction between a series of TIF2 deletion mutants and the ER or RARα LBDs, using GST-fusion protein-based in vitro assays. In both cases, an NWD was mapped to the central region of TIF2 (amino acids 624-869 in mutant TIF2.5; see FIGS. 7a and b). No additional NWD could be identified in the N- or C-termini of TIF2 (FIGS. 7a and b; mutants TIF2.0, TIF2.2 and TIF2.7). Note that, in contrast, SRC-1, a paralogue of TIF2, apparently harbours two distinct non-contiguous NIDs located in the central and C-terminal regions (Onate, S. A. et al., Science 270:1354-1357 (1995), Yao, T. P. et al., Proc. Natl. Acad. Sci. USA 93:10626-10631 (1996); Zhu, Y. et al., Gene Epression 6:185-195 (1996)).

Another experiment has as its system GAL4 reporter. The experiment is described as follows: GAL4 DBD-TIF2 fusion CAT reporter transactivation assay. The format is cell-based. The method, then:
(a) HeLa cells were cotransfected with 1 μg (17m)5-βG-CAT and 10 μg GAL(1-147) or 1,3 and 10 μg GAL(1-147)-TIF2.1, respectively.
(c) Analysis of the transcriptional activity of GAL-TIF2 fusion proteins. Cos-1 and HeLa cells were transfected with 3 lag of plasmids expressing different regions of TIF2 fised to the DNA-binding domain of the yeast transcription factor GALA together with 1 μg of the (7m)5-G-CAT reporterplasmid. CAT assays were performed as described (Bocquel, M. T. et al., Nucl Acids Res. 17:2581-2595 (1989)). Quantitative data on CAT reporter expression were obtained either by phosphoimager analysis (BAS2000, Fuji) of ^14C-labeled CAT reaction products separated by thin-layer chromatography, or using the CAT ELISA Kit (Boehringer Mannheim). In all cases, CAT activities were normalized to the β-galactosidase concentrations resulting from cotransfection of 1 μg of pCMVPGal (gift from T. Lerouge) as internal control. Fold inductions above the GAL4 DBD value are indicated. The mean and standard deviation of at least three experiments are shown. A representative Western blot, illustrating the expression levels of the GAL4-TIF2 fusion proteins, expressed from 10 μg of the corresponding expression vectors, is shown on the left.
(b) Transcriptional activation of TIF2 AF-1 mutants. Cos-1 and HeLa cells were cotransfected with 3 μg of plasmids expressing different mutants of the TIF2 AF-1 fused to the DNA-binding domain of the yeast transcription factor GAL4 together with 1 μg of the (17m)5-G-CAT reporter plasmid. Fold inductions above the activation seen with the GAL4 DBD alone are indicated. The values represent the mean of at least three experiments.
(a) Transcriptional activation by TIF2.13 and TIF2.13 mutants. Cos-1 and HeLa cells were cotransfected with 3 μg of plasmids expressing the TIF2.13 region and the indicated TIF2.13 mutants fused to the DNA-binding domain of the yeast transcription factor GALA together with 1 μg of the (17m)5-G-CAT reporter plasmid. Fold inductions above the GAL4 DBD 1-fold value are indicated. The mean and standard deviation obtained from at least four experiments are shown. The expression levels of the GAL4-TIF2.13 fusion proteins were confirmed by western blotting (data not shown).
Transient transfections of HeLa and Cos-1 cells were performed as described (Gronemeyer et al., (1987); Bocquel, M. T. et al., Nucl. Acids Res. 17:2581-2595 (1989)).

Experiment [3] deals with T1, transcriptional intermediary factor-2 (TIF2) (human, UniProt Q15596 1-1464).
T1 construct: Full length: endogenous protein of cell extracts (HeLa, MCF-7 and others), protein from transfected Cos-1 cells, or in-vitro-translated; also called 160-kDa protein
As to the kind of experiment: Far-Western blot with E2-bound 32P-GST-ER(DEF).

In experiment [4] the target is T2, TIF2.1 (TIF2 amino acids 624 to 1287) (human, UniProt Q15596 624-1287).
T2 construct: Form without a stated tag: expression-library clone, expressed in Cos cells from pSG5, or in-vitro-translated; also called cytoplasmic TIF2.1 polypeptide
T2 sequence: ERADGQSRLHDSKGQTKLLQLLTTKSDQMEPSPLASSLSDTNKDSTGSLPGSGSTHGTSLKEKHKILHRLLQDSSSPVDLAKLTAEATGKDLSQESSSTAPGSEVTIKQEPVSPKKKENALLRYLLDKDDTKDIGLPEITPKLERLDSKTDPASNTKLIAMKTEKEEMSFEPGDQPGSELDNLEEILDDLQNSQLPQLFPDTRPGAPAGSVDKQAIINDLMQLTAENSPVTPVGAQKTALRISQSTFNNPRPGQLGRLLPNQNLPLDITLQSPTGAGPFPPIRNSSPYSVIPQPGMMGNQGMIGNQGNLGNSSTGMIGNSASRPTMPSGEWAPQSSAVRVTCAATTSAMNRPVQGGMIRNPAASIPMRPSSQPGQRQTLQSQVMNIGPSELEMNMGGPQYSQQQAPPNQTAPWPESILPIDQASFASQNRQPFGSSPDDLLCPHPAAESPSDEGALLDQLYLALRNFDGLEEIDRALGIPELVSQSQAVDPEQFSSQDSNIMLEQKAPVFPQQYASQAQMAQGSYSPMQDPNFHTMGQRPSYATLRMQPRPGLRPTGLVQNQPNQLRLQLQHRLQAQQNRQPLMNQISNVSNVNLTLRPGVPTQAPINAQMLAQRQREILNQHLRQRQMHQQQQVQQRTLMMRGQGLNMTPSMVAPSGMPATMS
As to the kind of experiment: Far-Western blot with 32P-labelled NR LBD probe, agonist present.

The target of experiment [5] is T3, (His)6-TIF2.1, E. coli-expressed purified recombinant TIF2.1 (human, UniProt Q15596 624-1287).
T3 construct: also called His-tagged TIF2.1; purified TIF2.1 protein; not shown: (His)6 tag of pET15b
T3 sequence: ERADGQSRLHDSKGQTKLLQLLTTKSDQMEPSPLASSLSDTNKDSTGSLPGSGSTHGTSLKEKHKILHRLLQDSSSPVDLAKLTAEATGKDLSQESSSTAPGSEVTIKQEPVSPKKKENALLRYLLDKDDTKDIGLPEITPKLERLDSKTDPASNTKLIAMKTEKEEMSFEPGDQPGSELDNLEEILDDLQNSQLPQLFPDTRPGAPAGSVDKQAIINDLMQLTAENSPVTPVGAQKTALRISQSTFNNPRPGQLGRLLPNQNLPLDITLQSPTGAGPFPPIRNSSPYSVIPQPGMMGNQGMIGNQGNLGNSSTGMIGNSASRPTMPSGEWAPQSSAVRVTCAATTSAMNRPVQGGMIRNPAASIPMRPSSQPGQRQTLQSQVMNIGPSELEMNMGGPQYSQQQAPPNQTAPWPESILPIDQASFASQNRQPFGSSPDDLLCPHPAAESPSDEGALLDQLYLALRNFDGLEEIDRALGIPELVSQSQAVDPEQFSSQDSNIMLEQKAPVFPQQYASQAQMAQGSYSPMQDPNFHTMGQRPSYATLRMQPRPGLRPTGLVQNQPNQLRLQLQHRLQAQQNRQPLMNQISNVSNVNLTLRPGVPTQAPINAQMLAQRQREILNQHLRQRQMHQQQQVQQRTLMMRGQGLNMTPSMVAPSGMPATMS
The experiment is described as follows: GST interaction assay with E. coli-expressed TIF2.1, Western blot, agonist present. On the technique in general: In western blotting, separated proteins are transferred to a membrane and probed.

T1 sequence (Q15596 whole entry P1420S): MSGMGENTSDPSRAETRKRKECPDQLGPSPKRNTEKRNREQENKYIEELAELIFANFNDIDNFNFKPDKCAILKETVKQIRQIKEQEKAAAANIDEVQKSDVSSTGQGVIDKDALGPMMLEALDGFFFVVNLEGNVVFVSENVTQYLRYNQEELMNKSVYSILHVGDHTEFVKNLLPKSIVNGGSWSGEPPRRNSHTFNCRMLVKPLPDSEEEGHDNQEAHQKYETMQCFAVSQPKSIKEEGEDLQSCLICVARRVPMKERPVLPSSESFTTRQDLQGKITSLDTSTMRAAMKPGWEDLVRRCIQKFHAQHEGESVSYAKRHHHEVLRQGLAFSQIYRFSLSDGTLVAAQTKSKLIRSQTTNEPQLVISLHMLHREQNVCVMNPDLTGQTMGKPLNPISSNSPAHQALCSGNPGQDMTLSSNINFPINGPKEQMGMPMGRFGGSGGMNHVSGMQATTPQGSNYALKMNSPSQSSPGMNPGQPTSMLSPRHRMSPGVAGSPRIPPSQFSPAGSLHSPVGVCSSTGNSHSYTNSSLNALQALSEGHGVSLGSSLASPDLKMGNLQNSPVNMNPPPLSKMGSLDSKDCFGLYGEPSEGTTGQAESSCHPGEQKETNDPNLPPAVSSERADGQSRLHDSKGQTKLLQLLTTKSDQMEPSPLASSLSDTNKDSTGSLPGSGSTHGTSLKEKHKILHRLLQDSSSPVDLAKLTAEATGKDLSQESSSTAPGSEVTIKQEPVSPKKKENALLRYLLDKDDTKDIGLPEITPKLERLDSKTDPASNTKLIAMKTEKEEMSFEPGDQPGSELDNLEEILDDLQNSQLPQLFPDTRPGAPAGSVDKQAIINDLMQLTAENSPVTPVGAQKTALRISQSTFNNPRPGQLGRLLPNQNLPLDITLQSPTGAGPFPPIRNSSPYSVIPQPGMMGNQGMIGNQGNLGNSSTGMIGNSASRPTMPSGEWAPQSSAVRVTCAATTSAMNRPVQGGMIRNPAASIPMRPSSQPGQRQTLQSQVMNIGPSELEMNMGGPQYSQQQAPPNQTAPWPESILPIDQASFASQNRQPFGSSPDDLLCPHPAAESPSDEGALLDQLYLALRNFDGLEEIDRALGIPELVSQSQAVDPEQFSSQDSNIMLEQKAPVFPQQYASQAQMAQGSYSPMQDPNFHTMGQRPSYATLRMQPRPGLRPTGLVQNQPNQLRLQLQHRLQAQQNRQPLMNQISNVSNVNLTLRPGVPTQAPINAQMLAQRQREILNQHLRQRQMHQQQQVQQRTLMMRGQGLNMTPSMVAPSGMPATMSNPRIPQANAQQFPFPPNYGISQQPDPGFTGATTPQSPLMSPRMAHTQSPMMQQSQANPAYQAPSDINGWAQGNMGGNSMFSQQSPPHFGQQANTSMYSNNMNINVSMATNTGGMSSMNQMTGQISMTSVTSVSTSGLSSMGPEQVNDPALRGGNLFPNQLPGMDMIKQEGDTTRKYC

Take `CC/C(=C(\c1ccc(O)cc1)c1ccc(OCCN(C)C)cc1)c1ccccc1` [hydroxytamoxifen]: in the experiment on ER, the “stimulation by TIF2.1 of transactivation by antagonist-bound ER” value is on record as “did not lead to any stimulation”.

B1: TIF2.12 (TIF2 amino acids 940-1131) (other)
chain: IGNSASRPTMPSGEWAPQSSAVRVTCAATTSAMNRPVQGGMIRNPAASIPMRPSSQPGQRQTLQSQVMNIGPSELEMNMGGPQYSQQQAPPNQTAPWPESILPIDQASFASQNRQPFGSSPDDLLCPHPAAESPSDEGALLDQLYLALRNFDGLEEIDRALGIPELVSQSQAVDPEQFSSQDSNIMLEQKAP
notes: In-vitro-translated
As for B1, the binding result in experiment [1] and in experiment [2] was “no binding” throughout.

B2: TIF2.8 (TIF2 amino acids 1010-1179) (other)
chain: GPSELEMNMGGPQYSQQQAPPNQTAPWPESILPIDQASFASQNRQPFGSSPDDLLCPHPAAESPSDEGALLDQLYLALRNFDGLEEIDRALGIPELVSQSQAVDPEQFSSQDSNIMLEQKAPVFPQQYASQAQMAQGSYSPMQDPNFHTMGQRPSYATLRMQPRPGLRPT
notes: In-vitro-translated; also called minimal AD1
Take B2: the binding result in experiment [1] and in experiment [2] was “no binding” each time. In addition, the “binding to NRs (ER, RARα LBDs)” value in the experiment on ER, RARα and RXRα LBDs is on record as “cannot bind NRs”. In addition, the “transcriptional activation of GAL4 reporter by GAL4 DBD fusion” value in the experiment with GAL4 reporter (Cos-1 and/or HeLa cells) was “able to activate transcription”. The “increased transactivation relative to parent fragment” value with GAL4 reporter (Cos-1 cells) is on record as 2 fold; with GAL4 reporter (HeLa cells) it was 10 fold.

Regarding B3, the binding result in experiment [3] and in experiment [4] was “binds” each time.

On to B4, for which the binding result in experiment [4] and in experiment [5] was “binds” in each case.
